Reference: publication PMC2063547 (The Journal of Cell Biology, 2006)

T1: calcium and integrin binding protein 1 (CIB1), recombinant (human, UniProt Q99828 1-191)
T1 sequence (looked up): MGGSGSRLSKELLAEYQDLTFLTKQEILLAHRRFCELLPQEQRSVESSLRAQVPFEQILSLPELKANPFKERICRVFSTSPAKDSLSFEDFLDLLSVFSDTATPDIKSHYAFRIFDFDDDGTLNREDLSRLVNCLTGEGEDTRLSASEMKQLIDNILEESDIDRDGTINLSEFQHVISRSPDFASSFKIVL


Legend:
[1] = target: full-length human αIIb cytoplasmic tail peptide (human); assay: ELISA
[2] = target: T1, calcium and integrin binding protein 1 …; assay: ELISA

Row | IC50 [1] [nM] | binding result [2] | Molecule
1 | 25 | – | talin head domain (THD), recombinant (domain or fragment)
2 | – | binds | LVLAMWKVGFFKRNRPPLEEDDEEGQ [full-length human αIIb cytoplasmic tail peptide]
